Article PMC10987364

What was measured:
[1] = target: L-rhamnose isomerase (L-RIM) (Chloroflexus sp. origin (hot spring metagenome)); experiment: SEC; Superdex 200 increase 10/300 GL, 50 mM Tris-Cl pH 7.0, 150 mM NaCl, 0.5 mL/min; calibrated with ovalbumin, conalbumin, aldolase and ferritin
[2] = target: L-rhamnose isomerase (L-RIM) (Chloroflexus sp. origin (hot spring metagenome)); experiment: native gel or EMSA; 10% Native PAGE of purified L-RIM, Coomassie stained; native mass against a marker

stoichiometry N [1]: 4
stoichiometry N [2]: 4
Substance: L-rhamnose isomerase (L-RIM) (enzyme)
